In the RNAGym collection of RNA variant scans (doi:10.1073/pnas.2313332121):
This sample holds only a part of the variants without activity.

B1: TPR 5TU (parent)
chain: GGAUCUUCUCGAUCUAACAAAAAAGACAAAUCUGCCACAAAGCUUGAGAGCAUCUUCGGAUGCAGAGGCGGCAGCCUUCGGUGGCGCGAUAGCGCCAACGUUCUCAACUAUGACACGCAAAACGCGUGCUCCGUUGAAUGGAGUUUAUCAUG

Variants of: B1
Test: polymerase ribozyme fitness, log enrichment relative to wild type (log ratio); higher = more active; in vitro selection for triplet polymerase activity
Method in brief: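 In triplicate, a single round of in vitro selection was run on each mutant library, PCR-built and transcribed, covering one subunit of a heterodimeric triplet polymerase ribozyme. Frozen incubation at −7 °C followed annealing with a biotinylated primer, partner subunit and triplets, and extended constructs were then gel-excised, streptavidin-captured and taken through RT-PCR. Fitness is the logarithm of genotype enrichment over wild-type enrichment, from inverse-variance-weighted replicate averages of Illumina-sequenced inputs and outputs. […] only genotypes with ≥10 input reads and ≥1 read per output were kept.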

**Q.** For GGAUCUUCUCGAUCUAACAAAAAAGACAAAUCUGCCACAAAGCUUGAGAGCAUCUUCGGAUGCAGAGGCGGCAGCCUUCGGUGGCGCGAUUGCGCCAACGUUCUCAACUAUGACACGCAAAACGCGUGCUCCGUUGAAUGGAGUAUAUCAUG [A91U U145A], which “polymerase ribozyme fitness (log ratio)” value is on record?
**A.** -4

**Q.** With GGAUCUUCUCGAUCUAACAAAAAAGACAAAUCUGCCACAAAGCUUGAGAGCAUCUUCGGAUGCAGAGGCGGCAGCCUUCGGUGGCGCGAUAACGCCAACGUUCUAAACUAUGACACGCAAAACGCGUGCUCCGUUGAAUGGAGUUUAUCAUG [G92A C105A] as the variant, how does the “polymerase ribozyme fitness (log ratio)” value read?
**A.** -3.36

**Q.** Which “polymerase ribozyme fitness (log ratio)” value does the source give for GGAUCUUCUCGAUCUAACAAAAAAGACAAAUCUGCCACAAAGCUUGAGAGCAUCUUCGGAUGCAGAGGCGGCAGCCUUCGGUGGCGCGAUAACGCCAACGUUCUCAACUAUGACACGCAGCACGCGUGCUCCGUUGAAUGGAGUUUACCAUG [G92A A120G A121C U148C] here?
**A.** -4.16

**Q.** For GGAUCUUCUCGAUCUAACAAAAAAGACAAAUCUGCCACAAAGCUUGAGAGCAUCUUCGGAUGCAGAGGCGGCAGCCUUCGGUGGCGCGAUAACGCCAACGUUCUCAGCUAUGACACGCAAAACGCGUGCUCCGUUGAAUGGAGUUUAUCAUG [G92A A107G], which “polymerase ribozyme fitness (log ratio)” value is on record?
**A.** ≤ -4.2

**Q.** For GGAUCUUCUCGAUCUAACAAAAAAGACAAAUCUGCCACAAAGCUUGAGAGCAUCUUCGGAUGCAGAGGCGGCAGCCUUCGGUGGCGCGAUAACGCCAACGUUUUCAACUAUGACACGCAAAACGCGUGCUCCGUUGAAUGGAGUUUAUCAUG [G92A C103U], which “polymerase ribozyme fitness (log ratio)” value is on record?
**A.** -2.02

**Q.** With GGAUCUUCUCGAUCUAACAAAAAAGACAAAUCUGCCACAAAGCUUGAGAGCAUCUUCGGAUGCAGAGGCGGCAGCCUUCGGUGGCGCGAUAACGCCAACGUUCUCCACUAGGACACGCAAAACGCGUGCUCCGUUAAAUGGAGUUUAUCAUG [G92A A106C U111G G136A] as the variant, how does the “polymerase ribozyme fitness (log ratio)” value read?
**A.** ≤ -4.2

**Q.** Which “polymerase ribozyme fitness (log ratio)” value does the source give for GGAUCUUCUCGAUCUAACAAAAAAGACAAAUCUGCCACAAAGCUUGAGAGCAUCUUCGGAUGCAGAGGCGGCAGCCUUCGGUGGCGCGAUAACGCCAAUGUUCUCAACUAUGACACUCAAAACGCGUGCUCCGUUGAAUGGAGUUUAUCAGG [G92A C99U G117U U151G] here?
**A.** ≤ -4.2

**Q.** Which “polymerase ribozyme fitness (log ratio)” value does the source give for GGAUCUUCUCGAUCUAACAAAAAAGACAAAUCUGCCACAAAGCUUGAGAGCAUCUUCGGAUGCAGAGGCGGCAGCCUUCGGUGGCGCGAUAACGCCAACGUUCUCAACUAUGACACGCAAAACGCGUGCUCCGUUGAAUGGAGUUUAUCAUG [G92A] here?
**A.** -2.51

**Q.** With GGAUCUUCUCGAUCUAACAAAAAAGACAAAUCUGCCACAAAGCUUGAGAGCAUCUUCGGAUGCAGAGGCGGCAGCCUUCGGUGGCGCGAUAACGCCAACGUUCUCAACUAUGACACGGAAAACGCGUGCUCCGUUGAAUGGAGUUUAUCAUG [G92A C118G] as the variant, how does the “polymerase ribozyme fitness (log ratio)” value read?
**A.** -3.69

**Q.** With GGAUCUUCUCGAUCUAACAAAAAAGACAAAUCUGCCACAAAGCUUGAGAGCAUCUUCGGAUGCAGAGGCGGCAGCCUUCGGUGGCGCGAUAACGACAACGUUCUCAACUAUGACACGCAAAACGGGUGCUCCGUUGAAUGGAGUUUAUCAUG [G92A C95A C125G] as the variant, how does the “polymerase ribozyme fitness (log ratio)” value read?
**A.** -3.82

**Q.** For GGAUCUUCUCGAUCUAACAAAAAAGACAAAUCUGCCACAAAGCUUGAGAGCAUCUUCGGAUGCAGAGGCGGCAGCCUUCGGUGGCGCGAUAACGCCAACGUUCUCAACUAUGACAAGCAAAACGCGUGCUCCGUUGAAUGGACUUUAUCGUG [G92A C116A G143C A150G], which “polymerase ribozyme fitness (log ratio)” value is on record?
**A.** ≤ -4.2

**Q.** Which “polymerase ribozyme fitness (log ratio)” value does the source give for GGAUCUUCUCGAUCUAACAAAAAAGACAAAUCUGCCACAAAGCUUGAGAGCAUCUUCGGAUGCAGAGGCGGCAGCCUUCGGUGGCGCGAUAACGCCAACGUUCUCAACUAUGCCACGCAAAACGCGUGCUCCGUUGAAUGGAGUUUAUCAUG [G92A A113C] here?
**A.** -4.16

**Q.** With GGAUCUUCUCGAUCUAACAAAAAAGACAAAUCUGCCACAAAGCUUGAGAGCAUCUUCGGAUGCAGAGGCGGCAGCCUUCGGUGGCGCGAUAACGCCAACGUUCUCAACUAUGACAGGCAAAAGGCGUGCUCCGUUGAAUGGAGUUUAUCAUG [G92A C116G C123G] as the variant, how does the “polymerase ribozyme fitness (log ratio)” value read?
**A.** -2.92

**Q.** For GGAUCUUCUCGAUCUAACAAAAAAGACAAAUCUGCCACAAAGCUUGAGAGCAUCUUCGGAUGCAGAGGCGGCAGCCUUCGGUGGCGCGAUAACGCCAACGUUCUCAAUUAUGACACGCAAAACGCGUGCUCCGUUGAAUGGAGUUUAUCAUG [G92A C108U], which “polymerase ribozyme fitness (log ratio)” value is on record?
**A.** ≤ -4.2

**Q.** Which “polymerase ribozyme fitness (log ratio)” value does the source give for GGAUCUUCUCGAUCUAACAAAAAAGACAAAUCUGCCACAAAGCUUGAGAGCAUCUUCGGAUGCAGAGGCGGCAGCCUUCGGUGGCGCGAUUGCGCCAACGUUCUCAACGAUGACACGCAAAACGCGUGCUCCGUUGAAUGUAGUUUAUCAUG [A91U U109G G141U] here?
**A.** ≤ -4.2

**Q.** With GGAUCUUCUCGAUCUAACAAAAAAGACAAAUCUGCCACAAAGCUUGAGAGCAUCUUCGGAUGCAGAGGCGGCAGCCUUCGGUGGCGCGAUAACGCCAACGUUCUCAACUAUGACCCGCAAAACGCGUGCUCCGUUGAAUGGAGUUUAUCAUG [G92A A115C] as the variant, how does the “polymerase ribozyme fitness (log ratio)” value read?
**A.** -3.48

**Q.** For GGAUCUUCUCGAUCUAACAAAAAAGACAAAUCUGCCACAAAGCUUGAGAGCAUCUUCGGAUGCAGAGGCGGCAGCCUUCGGUGGCGCGAUAACGCCAACGUUCUCAACUAUGACACGCAAAACGCGUGCUCCGUUGAAUGGAGUUUAUUAUG [G92A C149U], which “polymerase ribozyme fitness (log ratio)” value is on record?
**A.** -3.4

**Q.** For GGAUCUUCUCGAUCUAACAAAAAAGACAAAUCUGCCACAAAGCUUGAGAGCAUCUUCGGAUGCAGAGGCGGCAGCCUUCGGUGGCGCGAUUGCGCCAACGUUCUCAACUAUGACACGCAAAACGCGUGCUCCGUUGAAUGAAGGUUAUCAUG [A91U G141A U144G], which “polymerase ribozyme fitness (log ratio)” value is on record?
**A.** ≤ -4.2

**Q.** Which “polymerase ribozyme fitness (log ratio)” value does the source give for GGAUCUUCUCGAUCUAACAAAAAAGACAAAUCUGCCACAAAGCUUGAGAGCAUCUUCGGAUGCAGAGGCGGCAGCCUUCGGUGGCGCGAUAACGCCAACGUUCUAAACUAUGACACGCAAAACGCGUGCUCCGUUGAAUGGAGUUUUUCAUG [G92A C105A A147U] here?
**A.** -4.16
